Target: T1, GST-TUD1 (Oryza sativa subsp. japonica (Rice), UniProt Q10PI9)
T1 chain: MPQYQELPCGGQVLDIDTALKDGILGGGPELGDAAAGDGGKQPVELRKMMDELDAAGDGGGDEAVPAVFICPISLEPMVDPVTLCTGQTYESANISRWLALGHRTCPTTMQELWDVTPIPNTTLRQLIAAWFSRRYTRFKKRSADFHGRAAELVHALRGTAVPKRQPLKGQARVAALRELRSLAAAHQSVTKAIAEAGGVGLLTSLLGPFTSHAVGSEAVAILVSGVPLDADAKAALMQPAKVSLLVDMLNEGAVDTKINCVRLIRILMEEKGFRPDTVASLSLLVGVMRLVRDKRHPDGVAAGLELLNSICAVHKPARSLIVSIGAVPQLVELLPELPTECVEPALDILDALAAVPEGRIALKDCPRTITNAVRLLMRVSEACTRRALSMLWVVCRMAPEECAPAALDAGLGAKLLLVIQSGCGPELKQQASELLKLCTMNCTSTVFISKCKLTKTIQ
Experiment: GST pull-down

B1: D1-tagged His (purified D1 fusion protein) (protein)
chain: MGSSCSRSHSLSEAETTKNAKSADIDRRILQETKAEQHIHKLLLLGAGESGKSTIFKQIKLLFQTGFDEAELRSYTSVIHANVYQTIKILYEGAKELSQVESDSSKYVISPDNQEIGEKLSDIDGRLDYPLLNKELVLDVKRLWQDPAIQETYLRGSILQLPDCAQYFMENLDRLAEAGYVPTKEDVLYARVRTNGVVQIQFSPVGENKRGGEVYRLYDVGGQRNERRKWIHLFEGVNAVIFCAAISEYDQMLFEDETKNRMMETKELFDWVLKQRCFEKTSFILFLNKFDIFEKKIQKVPLSVCEWFKDYQPIAPGKQEVEHAYEFVKKKFEELYFQSSKPDRVDRVFKIYRTTALDQKLVKKTFKLIDESMRRSREGT
Does B1 bind?
Result: binds
